The supplement of paper PMC9112550, “Optimization of the antimicrobial peptide Bac7 by deep mutational scanning” (BMC Biology, 2022)

Tested on: Escherichia coli TOP10
Assay: shrunken log2 fold change of peptide-encoding DNA abundance (4.5 h post-induction vs induction); higher = less antimicrobial activity (less host growth inhibition)
Conditions: time post-induction: 4.5 h; library: site-saturation at positions 5, 18, 19, 20
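Also: peptides expressed intracellularly from a pBAD plasmid library in pooled LB shake-flask culture, induced with 0.3% L-arabinose, DNA abundance read by NGS, three biological replicates, DESeq2 with apeglm shrinkage.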

Sequence	shrunken log2 fold change
RRIRRRPPRLPRPRPRPHLEPRP	0.0779
RRIRTRPPRLPRPRPRPIYLPRP	-0.224
RRIRQRPPRLPRPRPRPLYLPRP	-0.511
RRIRYRPPRLPRPRPRPGHCPRP	-0.0945
RRIRVRPPRLPRPRPRPQISPRP	-0.0989
RRIRQRPPRLPRPRPRPSVFPRP	-0.143
RRIRERPPRLPRPRPRPMFTPRP	-0.278
RRIRARPPRLPRPRPRPQDIPRP	-0.15
RRIRWRPPRLPRPRPRPIKMPRP	0.212
RRIRHRPPRLPRPRPRPEREPRP	0.0173
RRIRQRPPRLPRPRPRPSEMPRP	0.0648
RRIRSRPPRLPRPRPRPERAPRP	0.399
RRIRPRPPRLPRPRPRPYKFPRP	-0.178
RRIRARPPRLPRPRPRPALLPRP	0.718
RRIRERPPRLPRPRPRPNKTPRP	0.0491
RRIRSRPPRLPRPRPRPFTCPRP	-0.0185
RRIRCRPPRLPRPRPRPPIMPRP	-0.0556
RRIRGRPPRLPRPRPRPAGMPRP	0.737
RRIRLRPPRLPRPRPRPIHFPRP	-0.77
RRIRVRPPRLPRPRPRPAIDPRP	0.0602
RRIRPRPPRLPRPRPRPVIAPRP	0.0792
RRIRDRPPRLPRPRPRPADFPRP	-0.0606
RRIRYRPPRLPRPRPRPIRNPRP	-1.17
RRIRKRPPRLPRPRPRPHFFPRP	0.101
RRIRTRPPRLPRPRPRPLMPPRP	0.0315

Sequence	shrunken log2 fold change
RRIRIRPPRLPRPRPRPEAAPRP	0.538
RRIRVRPPRLPRPRPRPVEKPRP	0.265
RRIRQRPPRLPRPRPRPSFKPRP	-0.525
RRIRWRPPRLPRPRPRPPRKPRP	0.731
RRIRHRPPRLPRPRPRPSRIPRP	0.111
RRIRTRPPRLPRPRPRPNEEPRP	-0.0204
RRIRWRPPRLPRPRPRPRHAPRP	0.0251
RRIRHRPPRLPRPRPRPFMFPRP	-0.66
RRIRARPPRLPRPRPRPSWMPRP	-0.131
RRIRERPPRLPRPRPRPTIIPRP	-0.664
RRIRQRPPRLPRPRPRPIEEPRP	-0.00208
RRIRRRPPRLPRPRPRPIGQPRP	0.182
RRIRCRPPRLPRPRPRPDKGPRP	0.0974
RRIRFRPPRLPRPRPRPASLPRP	-0.227
RRIRCRPPRLPRPRPRPQNEPRP	-0.389
RRIRVRPPRLPRPRPRPGHKPRP	-0.17
RRIRNRPPRLPRPRPRPNAAPRP	-0.149
RRIRQRPPRLPRPRPRPQKPPRP	0.0718
RRIRNRPPRLPRPRPRPPSRPRP	0.228
RRIRTRPPRLPRPRPRPRCHPRP	-0.334
RRIRDRPPRLPRPRPRPFNLPRP	-0.176
RRIRNRPPRLPRPRPRPDEVPRP	-0.00973
RRIRQRPPRLPRPRPRPPERPRP	0.0424
RRIRRRPPRLPRPRPRPCPIPRP	0.0892
RRIRVRPPRLPRPRPRPYLIPRP	0.0388

Sequence	shrunken log2 fold change
RRIRSRPPRLPRPRPRPPDVPRP	0.14
RRIRNRPPRLPRPRPRPWCSPRP	-0.535
RRIRVRPPRLPRPRPRPESMPRP	-0.149
RRIRPRPPRLPRPRPRPINHPRP	-0.619
RRIRDRPPRLPRPRPRPGGDPRP	0.908
RRIRCRPPRLPRPRPRPFYYPRP	-0.97
RRIRTRPPRLPRPRPRPTPAPRP	0.57
RRIRSRPPRLPRPRPRPGFEPRP	0.418
RRIRVRPPRLPRPRPRPQDMPRP	-0.736
RRIRYRPPRLPRPRPRPIIAPRP	-1.18
RRIRPRPPRLPRPRPRPGDDPRP	-0.292
RRIRFRPPRLPRPRPRPYLCPRP	-0.477
RRIRWRPPRLPRPRPRPYCYPRP	-0.562
RRIRWRPPRLPRPRPRPIKLPRP	-0.216
RRIRSRPPRLPRPRPRPIELPRP	-0.122
RRIRLRPPRLPRPRPRPGPLPRP	0.287
RRIRKRPPRLPRPRPRPWYMPRP	-0.158
RRIRSRPPRLPRPRPRPSHVPRP	-0.3
RRIRDRPPRLPRPRPRPFIDPRP	0.168
RRIRTRPPRLPRPRPRPECHPRP	-0.247
RRIRFRPPRLPRPRPRPDTCPRP	-0.21
RRIRPRPPRLPRPRPRPMQGPRP	-0.146
RRIRCRPPRLPRPRPRPLVKPRP	-0.0116
RRIRLRPPRLPRPRPRPVFCPRP	0.14
RRIRHRPPRLPRPRPRPTYNPRP	-0.758
